Assay results published in patent publication US8715959B2, “Substitution mutant receptors and their use in a nuclear receptor-based inducible gene expression system” (priority 2001, dated 2014).

B1: M92A: CfEcR-DEF LBD substitution mutant, Methionine (M) to Alanine (A) (protein, listed as Choristoneura fumiferana)
chain: LTANQQFLIARLIWYQDGYEQPSDEDLKRITQTWQQADDENEESDTPFRQITEMTILTVQLIVEFAKGLPGFAKISQPDQITLLKACSSEVAMLRVARRYDAASDSVLFANNQAYTRDNYRKAGMAYVIEDLLHFCRCMYSMALDNIHYALLTAVVIFSDRPGLEQPQLVEEIQRYYLNTLRIYILNQLSGSARSSVIYGKILSILSELRTLGMQNSNMCISLKLKNRKLPPFLEEIWDV
B2: F109A: CfEcR-DEF LBD substitution mutant, Phenylalanine (F) to Alanine (A) (protein, listed as Choristoneura fumiferana)
chain: LTANQQFLIARLIWYQDGYEQPSDEDLKRITQTWQQADDENEESDTPFRQITEMTILTVQLIVEFAKGLPGFAKISQPDQITLLKACSSEVMMLRVARRYDAASDSVLAANNQAYTRDNYRKAGMAYVIEDLLHFCRCMYSMALDNIHYALLTAVVIFSDRPGLEQPQLVEEIQRYYLNTLRIYILNQLSGSARSSVIYGKILSILSELRTLGMQNSNMCISLKLKNRKLPPFLEEIWDV
B3: L230A: CfEcR-DEF LBD substitution mutant, Leucine (L) to Alanine (A) (protein, listed as Choristoneura fumiferana)
chain: LTANQQFLIARLIWYQDGYEQPSDEDLKRITQTWQQADDENEESDTPFRQITEMTILTVQLIVEFAKGLPGFAKISQPDQITLLKACSSEVMMLRVARRYDAASDSVLFANNQAYTRDNYRKAGMAYVIEDLLHFCRCMYSMALDNIHYALLTAVVIFSDRPGLEQPQLVEEIQRYYLNTLRIYILNQLSGSARSSVIYGKILSILSELRTLGMQNSNMCISLKLKNRKAPPFLEEIWDV
B4: A123F: CfEcR-DEF LBD substitution mutant, Alanine (A) to Phenylalanine (F) (protein, listed as Choristoneura fumiferana)
chain: LTANQQFLIARLIWYQDGYEQPSDEDLKRITQTWQQADDENEESDTPFRQITEMTILTVQLIVEFAKGLPGFAKISQPDQITLLKACSSEVMMLRVARRYDAASDSVLFANNQAYTRDNYRKFGMAYVIEDLLHFCRCMYSMALDNIHYALLTAVVIFSDRPGLEQPQLVEEIQRYYLNTLRIYILNQLSGSARSSVIYGKILSILSELRTLGMQNSNMCISLKLKNRKLPPFLEEIWDV
B5: M93A: CfEcR-DEF LBD substitution mutant, Methionine (M) to Alanine (A) (protein, listed as Choristoneura fumiferana)
chain: LTANQQFLIARLIWYQDGYEQPSDEDLKRITQTWQQADDENEESDTPFRQITEMTILTVQLIVEFAKGLPGFAKISQPDQITLLKACSSEVMALRVARRYDAASDSVLFANNQAYTRDNYRKAGMAYVIEDLLHFCRCMYSMALDNIHYALLTAVVIFSDRPGLEQPQLVEEIQRYYLNTLRIYILNQLSGSARSSVIYGKILSILSELRTLGMQNSNMCISLKLKNRKLPPFLEEIWDV
B6: V59A: CfEcR-DEF LBD substitution mutant, Valine (V) to Alanine (A) (protein, listed as Choristoneura fumiferana)
chain: LTANQQFLIARLIWYQDGYEQPSDEDLKRITQTWQQADDENEESDTPFRQITEMTILTAQLIVEFAKGLPGFAKISQPDQITLLKACSSEVMMLRVARRYDAASDSVLFANNQAYTRDNYRKAGMAYVIEDLLHFCRCMYSMALDNIHYALLTAVVIFSDRPGLEQPQLVEEIQRYYLNTLRIYILNQLSGSARSSVIYGKILSILSELRTLGMQNSNMCISLKLKNRKLPPFLEEIWDV
B7: R95A/A110P: CfEcR-DEF LBD double mutant, R95A and A110P (protein, listed as Choristoneura fumiferana)
chain: LTANQQFLIARLIWYQDGYEQPSDEDLKRITQTWQQADDENEESDTPFRQITEMTILTVQLIVEFAKGLPGFAKISQPDQITLLKACSSEVMMLAVARRYDAASDSVLFPNNQAYTRDNYRKAGMAYVIEDLLHFCRCMYSMALDNIHYALLTAVVIFSDRPGLEQPQLVEEIQRYYLNTLRIYILNQLSGSARSSVIYGKILSILSELRTLGMQNSNMCISLKLKNRKLPPFLEEIWDV
B8: W238A: CfEcR-DEF LBD substitution mutant, Tryptophan (W) to Alanine (A) (protein, listed as Choristoneura fumiferana)
chain: LTANQQFLIARLIWYQDGYEQPSDEDLKRITQTWQQADDENEESDTPFRQITEMTILTVQLIVEFAKGLPGFAKISQPDQITLLKACSSEVMMLRVARRYDAASDSVLFANNQAYTRDNYRKAGMAYVIEDLLHFCRCMYSMALDNIHYALLTAVVIFSDRPGLEQPQLVEEIQRYYLNTLRIYILNQLSGSARSSVIYGKILSILSELRTLGMQNSNMCISLKLKNRKLPPFLEEIADV
B9: M125A: CfEcR-DEF LBD substitution mutant, Methionine (M) to Alanine (A) (protein, listed as Choristoneura fumiferana)
chain: LTANQQFLIARLIWYQDGYEQPSDEDLKRITQTWQQADDENEESDTPFRQITEMTILTVQLIVEFAKGLPGFAKISQPDQITLLKACSSEVMMLRVARRYDAASDSVLFANNQAYTRDNYRKAGAAYVIEDLLHFCRCMYSMALDNIHYALLTAVVIFSDRPGLEQPQLVEEIQRYYLNTLRIYILNQLSGSARSSVIYGKILSILSELRTLGMQNSNMCISLKLKNRKLPPFLEEIWDV
B10: L234A: CfEcR-DEF LBD substitution mutant, Leucine (L) to Alanine (A) (protein, listed as Choristoneura fumiferana)
chain: LTANQQFLIARLIWYQDGYEQPSDEDLKRITQTWQQADDENEESDTPFRQITEMTILTVQLIVEFAKGLPGFAKISQPDQITLLKACSSEVMMLRVARRYDAASDSVLFANNQAYTRDNYRKAGMAYVIEDLLHFCRCMYSMALDNIHYALLTAVVIFSDRPGLEQPQLVEEIQRYYLNTLRIYILNQLSGSARSSVIYGKILSILSELRTLGMQNSNMCISLKLKNRKLPPFAEEIWDV
B11: I62A: CfEcR-DEF LBD substitution mutant, Isoleucine (I) to Alanine (A) (protein, listed as Choristoneura fumiferana)
chain: LTANQQFLIARLIWYQDGYEQPSDEDLKRITQTWQQADDENEESDTPFRQITEMTILTVQLAVEFAKGLPGFAKISQPDQITLLKACSSEVMMLRVARRYDAASDSVLFANNQAYTRDNYRKAGMAYVIEDLLHFCRCMYSMALDNIHYALLTAVVIFSDRPGLEQPQLVEEIQRYYLNTLRIYILNQLSGSARSSVIYGKILSILSELRTLGMQNSNMCISLKLKNRKLPPFLEEIWDV
B12: L223A: CfEcR-DEF LBD substitution mutant, Leucine (L) to Alanine (A) (protein, listed as Choristoneura fumiferana)
chain: LTANQQFLIARLIWYQDGYEQPSDEDLKRITQTWQQADDENEESDTPFRQITEMTILTVQLIVEFAKGLPGFAKISQPDQITLLKACSSEVMMLRVARRYDAASDSVLFANNQAYTRDNYRKAGMAYVIEDLLHFCRCMYSMALDNIHYALLTAVVIFSDRPGLEQPQLVEEIQRYYLNTLRIYILNQLSGSARSSVIYGKILSILSELRTLGMQNSNMCISAKLKNRKLPPFLEEIWDV
B13: R95A: CfEcR-DEF LBD substitution mutant, Arginine (R) to Alanine (A) (protein, listed as Choristoneura fumiferana)
chain: LTANQQFLIARLIWYQDGYEQPSDEDLKRITQTWQQADDENEESDTPFRQITEMTILTVQLIVEFAKGLPGFAKISQPDQITLLKACSSEVMMLAVARRYDAASDSVLFANNQAYTRDNYRKAGMAYVIEDLLHFCRCMYSMALDNIHYALLTAVVIFSDRPGLEQPQLVEEIQRYYLNTLRIYILNQLSGSARSSVIYGKILSILSELRTLGMQNSNMCISLKLKNRKLPPFLEEIWDV
B14: Y120A: CfEcR-DEF LBD substitution mutant, Tyrosine (Y) to Alanine (A) (protein, listed as Choristoneura fumiferana)
chain: LTANQQFLIARLIWYQDGYEQPSDEDLKRITQTWQQADDENEESDTPFRQITEMTILTVQLIVEFAKGLPGFAKISQPDQITLLKACSSEVMMLRVARRYDAASDSVLFANNQAYTRDNARKAGMAYVIEDLLHFCRCMYSMALDNIHYALLTAVVIFSDRPGLEQPQLVEEIQRYYLNTLRIYILNQLSGSARSSVIYGKILSILSELRTLGMQNSNMCISLKLKNRKLPPFLEEIWDV

Tested on: CfEcR-DEF
Experiment: GAL4/mutant CfEcR-DEF + VP16/LmUSP-EF GAL4-driven luciferase reporter transactivation in NIH3T3 cells
Assay type: cell-based, Choristoneura fumiferana
Conditions: NIH3T3 cells, relative to Gal4/wild-type CfEcR-DEF switch activity; for Fold increase over WT, 2.5 μM GS™-E: 2.5 μM GS™-E non-steroidal ligand; for Fold increase over WT, 2.5 μM PonA: 2.5 μM PonA steroidal ligand
Experimental: DNAs corresponding to the various switch constructs outlined in Example 1, specifically switches 1.1-1.13, were transfected into mouse NIH3T3 cells (ATCC) or L57 cells (Dr. Peter Cherbas; Indiana University) as follows. Standard methods for culture and maintenance of the cells were followed. […] Superfect™ (Qiagen Inc.) was used for 3T3 cells and Lipofectamine™ (LifeTechnologies) was used for L57 cells as the transfection reagents. For 12-well plates, 4 μl of Superfect™ or Lipofectamine™ was mixed with 100 μl of growth medium. One μg of reporter construct and 0.25 μg of each receptor construct of the receptor pair to be analyzed were added to the transfection mix. […] The cells were harvested and reporter activity was assayed.
Cells were harvested 40 hours after adding ligands. […] Twenty μl of lysate were assayed.
Briefly, Applicants mutated amino acid residues predicted to be critical for ecdysteroid binding into alanine and created GAL4/mutantCfEcR-DEF cDNA gene expression cassettes as described in Example 1 above using the Quikchange PCR-mediated site-directed mutagenesis kit (Stratagene, La Jolla, Calif.). The mutated and the WT cDNAs were tested in GAL4-driven luciferase reporter assays.
DNAs corresponding to the various switch constructs outlined in Example 1, specifically switches 1.1-1.2, were transfected into mouse NIH3T3 cells (ATCC) as follows. […] Two μl of Superfect™ was mixed with 100 μl of growth medium and 50 ng of either GAL4/wild-type EcR or Gal4/mutant EcR cassette, 50 ng of VP16/LmUSP-EF and 200 ng of pFRLuc were added to the transfection mix. […] The cells were harvested and reporter activity was assayed as described above.

Row | Molecule | Fold increase over WT, 2.5 μM GS™-E [fold] | Fold increase over WT, 2.5 μM PonA [fold]
1 | B1 | 0.7 | 0.39
2 | B2 | 0.22 | 0.005
3 | B3 | 0.001 | 0.006
4 | B4 | 0.09 | 0.005
5 | B5 | 0.46 | 0.07
6 | B6 | 0.47 | 0.002
7 | B7 | 0.4 | 0.007
8 | B8 | 0.002 | 0.013
9 | B9 | 0.005 | 0.007
10 | B10 | 0.001 | 0.006
11 | B11 | 0.12 | 0.004
12 | B12 | 0.118 | 0.007
13 | B13 | 0.4 | 0.006
14 | B14 | 0.001 | 0.006
